# Reference: patent EP4682169A1 (Gracell Biotechnologies (Shanghai) Co., Ltd., dated 2026)
# Values joined by “and” are separate entries in the source; they are usually repeats but may differ in a detail not shown here. Equal entries are not always repeated.
# Columns and labels:
# Claudin 18.2 VLP [1] = molecular target: T1, Claudin 18.2 VLP (UniProt P56856 1-261); test: ELISA, coated antigen 200 ng/well
# T1 construct: Antigen coated on ELISA plates, 200 ng/well; source and construct not described; also called Claudin18.2-VLP protein; Claudin18.2 VLP antigen
# [2] = molecular target: T2, Claudin18.2 recombinant protein (His tag) (UniProt P56856-2 1-261, limits assumed); test: ELISA, coated antigen 200 ng/well
# T2 construct: also called Claudin18.2-his antigen; not shown: His tag
# Claudin 18.2 VLP [3] = molecular target: T1, Claudin 18.2 VLP; test: ELISA, coated antigen 200 ng/well; antibody 0.37 ug/mL
# [4] = molecular target: T2, Claudin18.2 recombinant protein (His …); test: as above
# Claudin 18.2 VLP [5] = molecular target: T1, Claudin 18.2 VLP; test: ELISA, coated antigen 200 ng/well; antibody 0.014 ug/mL
# [6] = molecular target: T2, Claudin18.2 recombinant protein (His …); test: as above
# Claudin 18.2 VLP [7] = molecular target: T1, Claudin 18.2 VLP; test: ELISA, coated antigen 200 ng/well; antibody 0.041 ug/mL
# [8] = molecular target: T2, Claudin18.2 recombinant protein (His …); test: as above
# Claudin 18.2 VLP [9] = molecular target: T1, Claudin 18.2 VLP; test: ELISA, coated antigen 200 ng/well; antibody 0.123 ug/mL
# [10] = molecular target: T2, Claudin18.2 recombinant protein (His …); test: as above
# Claudin 18.2 VLP [11] = molecular target: T1, Claudin 18.2 VLP; test: ELISA, coated antigen 200 ng/well; antibody 1.111 ug/mL
# [12] = molecular target: T2, Claudin18.2 recombinant protein (His …); test: as above
# Claudin 18.2 VLP [13] = molecular target: T1, Claudin 18.2 VLP; test: ELISA, coated antigen 200 ng/well; antibody 3.333 ug/mL
# [14] = molecular target: T2, Claudin18.2 recombinant protein (His …); test: as above
# Claudin 18.2 VLP [15] = molecular target: T1, Claudin 18.2 VLP; test: ELISA, coated antigen 200 ng/well; antibody 100 ug/mL (so in the source)
# [16] = molecular target: T2, Claudin18.2 recombinant protein (His …); test: as above
# Claudin 18.2 VLP [17] = molecular target: T1, Claudin 18.2 VLP; test: ELISA, coated antigen 200 ng/well; antibody 0 ug/mL (blank well, background)
# [18] = molecular target: T2, Claudin18.2 recombinant protein (His …); test: as above
# [19] = molecular target: T2, Claudin18.2 recombinant protein (His …); test: ELISA, coated antigen; upper end, tied by Table 3 to 1-hIgG1Fc on Claudin 18.2-his (196 nM)
binder,measurement,setting,value
"1-hIgG1Fc (Fc fusion, VHH-hIgG1Fc recombinant antibody; also called 1-hlgG1Fc; VHH-hIgG1Fc recombinant antibody of clone 1; not shown: human IgG1 Fc (hIgG1Fc)) EVQLVGSGGGLVQPGGSLRLSCAASGSILNLMTTGWYRQAPGKQRDLVATITFGGTTNYADSVKGRFTISRDKSKNTAYLQMDNLKPEDTAVYFCYADVIVGFQDRRVAWDAGTQVTVSS",EC50,Claudin 18.2 VLP [1],1.46 µg/mL and 18.3 nM
same,EC50,[2],15.7 µg/mL and 196 nM
same,absorbance at 450 nm,Claudin 18.2 VLP [3],0.585
same,absorbance at 450 nm,[4],0.216
same,absorbance at 450 nm,Claudin 18.2 VLP [5],0.282
same,absorbance at 450 nm,[6],0.066
same,absorbance at 450 nm,Claudin 18.2 VLP [7],0.271
same,absorbance at 450 nm,[8],0.07
same,absorbance at 450 nm,Claudin 18.2 VLP [9],0.293
same,absorbance at 450 nm,[10],0.1
same,absorbance at 450 nm,Claudin 18.2 VLP [11],1.35
same,absorbance at 450 nm,[12],0.473
same,absorbance at 450 nm,Claudin 18.2 VLP [13],2.13
same,absorbance at 450 nm,[14],1.08
same,absorbance at 450 nm,Claudin 18.2 VLP [15],2.66
same,absorbance at 450 nm,[16],2.36
same,absorbance at 450 nm,Claudin 18.2 VLP [17],0.275
same,absorbance at 450 nm,[18],0.06
same,EC50,[19],200 nM
